Experimental findings from US20110098217A1 (INDIANA UNIVERSITY RESEARCH AND TECHNOLOGY, published 2011) are described below.

In one assay the target is Receptor (human) (UniProt P47871). Description: receptor binding competition.
Assay [1] addresses T1, human glucagon receptor (human, UniProt P47871 26-477). In words: cell-based or functional assay.
The target in assay [2] is T2, human GLP-1 receptor (human, UniProt P43220 24-463). In words: cell-based or functional assay.
Assay [3] addresses T1, human glucagon receptor. In words: cell-based or functional assay. This is another data set of the same source.
Assay [4] has as its target T2, human GLP-1 receptor. Description: cell-based or functional assay. The source holds these as a separate data set.
In assay [5] the target is T1, human glucagon receptor. In words: cell-based or functional assay. The source holds these as a separate data set.
The target in assay [6] is T2, human GLP-1 receptor. In words: cell-based or functional assay. This is another data set of the same source.
Assay [7] has as its target T1, human glucagon receptor. Description: cell-based or functional assay. The source holds these as a separate data set.
For assay [8], the target named is T2, human GLP-1 receptor. In words: cell-based or functional assay. This is another data set of the same source.
Assay [9] deals with T1, human glucagon receptor. In words: cell-based or functional assay. This is another data set of the same source.
For assay [10], the target named is T1, human glucagon receptor. In words: SPA competition vs 125I-glucagon, receptor membranes.
Assay [11] has as its target T1, human glucagon receptor. The assay is described as above. This is another data set of the same source.
For assay [12], the target named is T1, human glucagon receptor. In words: cell-based or functional assay. The source holds these as a separate data set.

Read-outs that look alike come from different tables or passages of the source. Bridge positions count the residues as written; N and C are the ends. Square brackets hold non-standard residues; d marks the D form. Ends that are not written are not given here. Abu(4-SO3H) = N[C@@H](CCS(=O)(=O)O)C(=O)O; PhLac = O=C(O)[C@@H](O)Cc1ccccc1

Sequence of Receptor (human) (P47871 26-477): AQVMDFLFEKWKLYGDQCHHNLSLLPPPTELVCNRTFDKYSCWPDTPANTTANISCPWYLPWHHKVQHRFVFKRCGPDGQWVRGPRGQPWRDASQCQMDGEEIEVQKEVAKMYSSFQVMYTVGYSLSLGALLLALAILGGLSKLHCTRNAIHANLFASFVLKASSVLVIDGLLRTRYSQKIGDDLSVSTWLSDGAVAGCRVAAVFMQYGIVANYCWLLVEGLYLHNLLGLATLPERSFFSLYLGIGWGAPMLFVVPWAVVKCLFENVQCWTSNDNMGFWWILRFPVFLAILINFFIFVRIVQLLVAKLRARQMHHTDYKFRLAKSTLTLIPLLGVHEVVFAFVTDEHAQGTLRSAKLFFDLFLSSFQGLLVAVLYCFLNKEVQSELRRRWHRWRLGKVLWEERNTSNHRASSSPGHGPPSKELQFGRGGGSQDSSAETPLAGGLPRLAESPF
T1 sequence (P47871 26-477): as above

Usually IC50 stands for the concentration that inhibits the measured activity by half. A high value points to a need for much substance. Regarding [BMA6, E9]G(6-29)-NH2, the IC50 with Receptor (human) worked out at 80.6 nM.

With [Ac-F6, E9]G(6-29)-NH2, the concentration for half-maximal inhibition (IC50) with Receptor (human) amounted to 37.1 nM.

Turning to [3,4-2(F)-F6, E9]G(6-29)-NH2, in the assay with Receptor (human), the half-maximal inhibitory concentration (IC50) was found to be 36.7 nM.

In the assay with Receptor (human), [2-Nal6, E9]G(6-29)-NH2 yielded an IC50 of 95.2 nM.

As to [MCA6, E9]G(6-29)-NH2, in the assay with Receptor (human), the 50% inhibitory concentration (IC50) came to 114 nM.

On to [PhLac]TSDYSKYLDERRAQDFVEWLMKT-NH2 (lactam 19-23; not fully specified) [[PLA6, E16, E24K28(lactam)]G(6-29)], for which, in the assay with human glucagon receptor [1], the “Glucagon IC50” value is 22 nM. Besides, in the assay with human GLP-1 receptor [2], the “GLP-1 EC50” value amounted to 289 nM. In the assay with human glucagon receptor [3], the “Glucagon antagonism IC50 (inhibit 0.2-0.8 nM glucagon)” value was 22.4 nM. The “GLP-1 agonism EC50” value in the assay with human GLP-1 receptor [4] was determined as 289 nM.

B1: [PLA6, E16, K20E24(lactam), D28]G(6-29) (peptide)
peptide: [PhLac]TSDYSKYLDERRAKDFVEWLMDT-NH2
modifications: lactam 15-19; N-terminus assumed
SMILES: CSCC[C@H](NC(=O)[C@H](CC(C)C)NC(=O)[C@H](Cc1c[nH]c2ccccc12)NC(=O)[C@@H]1CCC(=O)NCCCC[C@H](NC(=O)[C@H](C)NC(=O)[C@H](CCCNC(=N)N)NC(=O)[C@H](CCCNC(=N)N)NC(=O)[C@H](CCC(=O)O)NC(=O)[C@H](CC(=O)O)NC(=O)[C@H](CC(C)C)NC(=O)[C@H](Cc2ccc(O)cc2)NC(=O)[C@H](CCCCN)NC(=O)[C@H](CO)NC(=O)[C@H](Cc2ccc(O)cc2)NC(=O)[C@H](CC(=O)O)NC(=O)[C@H](CO)NC(=O)[C@@H](NC(=O)[C@@H](O)Cc2ccccc2)[C@@H](C)O)C(=O)N[C@@H](CC(=O)O)C(=O)N[C@@H](Cc2ccccc2)C(=O)N[C@@H](C(C)C)C(=O)N1)C(=O)N[C@@H](CC(=O)O)C(=O)N[C@H](C(N)=O)[C@@H](C)O
As to B1, the “Glucagon IC50” value in the assay with human glucagon receptor [1] was 74 nM. Also, the “GLP-1 EC50” value in the assay with human GLP-1 receptor [2] stood at 239 nM. Also, the “Glucagon antagonism IC50 (inhibit 0.2-0.8 nM glucagon)” value with human glucagon receptor [3] was determined as 74.4 nM. Also, in the assay with human GLP-1 receptor [4], the “GLP-1 agonism EC50” value turned out to be 240 nM.

In the case of HAEGT[PhLac]TSDYSKYLDERRAKDFVQWLMDT-NH2 (lactam 16-20; also: PLA6 linked to Thr5 by an ester bond (depsipeptide)) [[H1A2E3-O-PLA6, D9, E16K20(Lactam), D28] G(1-29)], in the assay with human glucagon receptor [5], the “Glucagon antagonism IC50 (inhibit 0.8 nM glucagon)” value was 9.65 nM. Also, the “GLP-1 agonism EC50” value with human GLP-1 receptor [6] was 6.2 nM.

For the molecule AEGT[PhLac]TSDYSKYLDERRAKDFVQWLMDT-NH2 (lactam 15-19; also: PLA6 linked to Thr5 by an ester bond (depsipeptide)) [[A2E3-O-PLA6, D9, E16K20(Lactam), D28] G(2-29)], the “Glucagon antagonism IC50 (inhibit 0.8 nM glucagon)” value stood at 21.8 nM with human glucagon receptor [7] and 4.68 nM with human glucagon receptor [5]. The “GLP-1 agonism EC50” value in the assay with human GLP-1 receptor [8] turned out to be 18 nM; with human GLP-1 receptor [6], 14 nM.

Turning to SQGTFTSEYSKYLDSRRAQDFVQFLLNT-NH2 [[desHis^1, Glu^9, Phe^25, Leu^27]Glucagon-NH2], the “cAMP Induction EC50” value in the assay with human glucagon receptor [9] is 81 nM. Moreover, the IC50 in the assay with human glucagon receptor [10] stood at 12.6 nM.

In the case of SQLTFTSEYSKYLDSRRAQDFVQWLMNT-NH2 (also called Cmpd) [[desHis^1, Leu^4, Glu^9] Glucagon-NH2], in the assay with human glucagon receptor [9], the “cAMP Induction EC50” value was determined as 318 nM and the “cAMP Inhibition IC50” value turned out to be 102 nM. This molecule also had an IC50 in the assay with human glucagon receptor [10] of 36.9 nM.

B2: [PLA^6, D^9]Glucagon(aa6-29)-COOH (peptide)
peptide: [PhLac]TSDYSKYLDSRRAQDFVQWLMNT-OH
modifications: N-terminus assumed
SMILES: CSCC[C@H](NC(=O)[C@H](CC(C)C)NC(=O)[C@H](Cc1c[nH]c2ccccc12)NC(=O)[C@H](CCC(N)=O)NC(=O)[C@@H](NC(=O)[C@H](Cc1ccccc1)NC(=O)[C@H](CC(=O)O)NC(=O)[C@H](CCC(N)=O)NC(=O)[C@H](C)NC(=O)[C@H](CCCNC(=N)N)NC(=O)[C@H](CCCNC(=N)N)NC(=O)[C@H](CO)NC(=O)[C@H](CC(=O)O)NC(=O)[C@H](CC(C)C)NC(=O)[C@H](Cc1ccc(O)cc1)NC(=O)[C@H](CCCCN)NC(=O)[C@H](CO)NC(=O)[C@H](Cc1ccc(O)cc1)NC(=O)[C@H](CC(=O)O)NC(=O)[C@H](CO)NC(=O)[C@@H](NC(=O)[C@@H](O)Cc1ccccc1)[C@@H](C)O)C(C)C)C(=O)N[C@@H](CC(N)=O)C(=O)N[C@H](C(=O)O)[C@@H](C)O
In the assay with human glucagon receptor [11], B2 came in with an IC50 of 15.5 nM. In addition, the “IC50 (cAMP, inhibit 0.1 nM Glucagon)” value in the assay with human glucagon receptor [12] was found to be 13.2 nM.

B3: [PLA^6, D^9]Glucagon(aa6-29)-NH2 (peptide)
peptide: [PhLac]TSDYSKYLDSRRAQDFVQWLMNT-NH2
modifications: N-terminus assumed
SMILES: CSCC[C@H](NC(=O)[C@H](CC(C)C)NC(=O)[C@H](Cc1c[nH]c2ccccc12)NC(=O)[C@H](CCC(N)=O)NC(=O)[C@@H](NC(=O)[C@H](Cc1ccccc1)NC(=O)[C@H](CC(=O)O)NC(=O)[C@H](CCC(N)=O)NC(=O)[C@H](C)NC(=O)[C@H](CCCNC(=N)N)NC(=O)[C@H](CCCNC(=N)N)NC(=O)[C@H](CO)NC(=O)[C@H](CC(=O)O)NC(=O)[C@H](CC(C)C)NC(=O)[C@H](Cc1ccc(O)cc1)NC(=O)[C@H](CCCCN)NC(=O)[C@H](CO)NC(=O)[C@H](Cc1ccc(O)cc1)NC(=O)[C@H](CC(=O)O)NC(=O)[C@H](CO)NC(=O)[C@@H](NC(=O)[C@@H](O)Cc1ccccc1)[C@@H](C)O)C(C)C)C(=O)N[C@@H](CC(N)=O)C(=O)N[C@H](C(N)=O)[C@@H](C)O
In turn, B3 gave an IC50 with human glucagon receptor [11] of 13.8 nM. The “IC50 (cAMP, inhibit 0.1 nM Glucagon)” value with human glucagon receptor [12] came to 6.9 nM.

The molecule [PhLac]TS[Abu(4-SO3H)]YSKYLDSRRAQDFVQWLMNT-NH2 [[PLA^6, hCys(SO3)^9]Glucagon(aa6-29)-NH2] displayed an IC50 with human glucagon receptor [11] of 14.2 nM. Also, in the assay with human glucagon receptor [12], the “IC50 (cAMP, inhibit 0.2 nM Glucagon)” value came out at 40.2 nM.

B4: [PLA^6, E^9]Glucagon (aa6-29 + CEX)-NH2 (peptide)
peptide: [PhLac]TSEYSKYLDSRRAQDFVQWLMNTGPSSGAPPPS-NH2
modifications: N-terminus assumed
SMILES: CSCC[C@H](NC(=O)[C@H](CC(C)C)NC(=O)[C@H](Cc1c[nH]c2ccccc12)NC(=O)[C@H](CCC(N)=O)NC(=O)[C@@H](NC(=O)[C@H](Cc1ccccc1)NC(=O)[C@H](CC(=O)O)NC(=O)[C@H](CCC(N)=O)NC(=O)[C@H](C)NC(=O)[C@H](CCCNC(=N)N)NC(=O)[C@H](CCCNC(=N)N)NC(=O)[C@H](CO)NC(=O)[C@H](CC(=O)O)NC(=O)[C@H](CC(C)C)NC(=O)[C@H](Cc1ccc(O)cc1)NC(=O)[C@H](CCCCN)NC(=O)[C@H](CO)NC(=O)[C@H](Cc1ccc(O)cc1)NC(=O)[C@H](CCC(=O)O)NC(=O)[C@H](CO)NC(=O)[C@@H](NC(=O)[C@@H](O)Cc1ccccc1)[C@@H](C)O)C(C)C)C(=O)N[C@@H](CC(N)=O)C(=O)N[C@H](C(=O)NCC(=O)N1CCC[C@H]1C(=O)N[C@@H](CO)C(=O)N[C@@H](CO)C(=O)NCC(=O)N[C@@H](C)C(=O)N1CCC[C@H]1C(=O)N1CCC[C@H]1C(=O)N1CCC[C@H]1C(=O)N[C@@H](CO)C(N)=O)[C@@H](C)O
B4: in the assay with human glucagon receptor [11], the IC50 was 40.3 nM. In the assay with human glucagon receptor [12], the “IC50 (cAMP, inhibit 0.1 nM Glucagon)” value was determined as 24.8 nM.

Take SQGTTSDYSKYLDSRRAQDFVQWLMNT-NH2 (His1 and Phe6 deleted; also called Cmpd) [[desHis^1, desPhe^6] Glucagon-NH2]: the “cAMP Induction EC50” value in the assay with human glucagon receptor [9] was determined as 1180 nM. The molecule also yielded an IC50 with human glucagon receptor [10] of 130 nM.

On to SQGT[PhLac]TSDYSKYLDERRAKDFVQWLMDT-NH2 (lactam 15-19; also: ester (depsipeptide) bond Thr5-PLA6) [[S2Q3-O-PLA6, D9, E16K20(Lactam), D28] G(2-29)], for which the “Glucagon antagonism IC50 (inhibit 0.8 nM glucagon)” value worked out at 20.9 nM with human glucagon receptor [7] and 3.14 nM with human glucagon receptor [5]. Further, the “GLP-1 agonism EC50” value in the assay with human GLP-1 receptor [8] stood at 112 nM; with human GLP-1 receptor [6], 45.7 nM.

B5: [PLA6, E16K20(lactam), E21, D28] G(6-29) (peptide)
peptide: [PhLac]TSDYSKYLDERRAKEFVQWLMDT-NH2
modifications: lactam 11-15; N-terminus assumed
SMILES: CSCC[C@H](NC(=O)[C@H](CC(C)C)NC(=O)[C@H](Cc1c[nH]c2ccccc12)NC(=O)[C@H](CCC(N)=O)NC(=O)[C@@H](NC(=O)[C@H](Cc1ccccc1)NC(=O)[C@H](CCC(=O)O)NC(=O)[C@@H]1CCCCNC(=O)CC[C@H](NC(=O)[C@H](CC(=O)O)NC(=O)[C@H](CC(C)C)NC(=O)[C@H](Cc2ccc(O)cc2)NC(=O)[C@H](CCCCN)NC(=O)[C@H](CO)NC(=O)[C@H](Cc2ccc(O)cc2)NC(=O)[C@H](CC(=O)O)NC(=O)[C@H](CO)NC(=O)[C@@H](NC(=O)[C@@H](O)Cc2ccccc2)[C@@H](C)O)C(=O)N[C@@H](CCCNC(=N)N)C(=O)N[C@@H](CCCNC(=N)N)C(=O)N[C@@H](C)C(=O)N1)C(C)C)C(=O)N[C@@H](CC(=O)O)C(=O)N[C@H](C(N)=O)[C@@H](C)O
B5: the “Glucagon antagonism IC50 (inhibit 0.2-0.8 nM glucagon)” value with human glucagon receptor [3] worked out at 8.6 nM. In addition, in the assay with human GLP-1 receptor [4], the “GLP-1 agonism EC50” value worked out at 11.1 nM.
